B1: IgG1-F1312 (antibody)
heavy: QVQLQESGPGLVKPSETLSLTCAVSGHSISHDHAWSWVRQPPGEGLEWIGFISYSGITNYNPSLQGRVTISRDNSKNTLYLQMNSLRAEDTAVYYCARSLARTTAMDYWGEGTLVTVSSASTKGPSVFPLAPSSKSTSGGTAALGCLVKDYFPEPVTVSWNSGALTSGVHTFPAVLQSSGLYSLSSVVTVPSSSLGTQTYICNVNHKPSNTKVDKKVEPKSCDKTHTCPPCPAPELRGGPKVFLFPPKPKDTLYISRTPEVTCVVVDVSHEDPEVKFNWYVDGVEVHNAKTKPREEQYNSTYRVVSVLTVLHQDWLNGKEYKCKVSNKALPAPIEKTISKAKGQPREPQVYTLPPSRDELTKNQVSLTCLVKGFYPSDIAVEWESNGQPENNYKTTPPVLDSDGSFFLYSKLTVDKSRWQQGNLFLCSVMHEALDYHVTQKSLSLSP
light: not shown
notes: EU numbering; copies: 2 + 2
B2: IgG1-F1319 (antibody)
heavy: QVQLQESGPGLVKPSETLSLTCAVSGHSISHDHAWSWVRQPPGEGLEWIGFISYSGITNYNPSLQGRVTISRDNSKNTLYLQMNSLRAEDTAVYYCARSLARTTAMDYWGEGTLVTVSSASTKGPSVFPLAPSSKSTSGGTAALGCLVKDYFPEPVTVSWNSGALTSGVHTFPAVLQSSGLYSLSSVVTVPSSSLGTQTYICNVNHKPSNTKVDKKVEPKSCDKTHTCPPCPAPELLGGPSVFLFPPKPKDTLYISRTPEVTCVVVDVSHEDPEVKFNWYVDGVEVHNAKTKPREEQYNSTYRVVSVLTVLHQDWLNGKEYKCKVSNKAYPAPIEKTISKAKGQPREPQVYTLPPSRDELTKNQVSLTCLVKGFYPSDIAVEWESNGQPENNYKTTPPVLDSDGSFFLYSKLTVDKSRWQQGNVFSCSVMHEALHYHYTQKSLSLSP
light: not shown
notes: EU numbering; copies: 2 + 2
B3: IgG1-F1321 (antibody)
heavy: QVQLQESGPGLVKPSETLSLTCAVSGHSISHDHAWSWVRQPPGEGLEWIGFISYSGITNYNPSLQGRVTISRDNSKNTLYLQMNSLRAEDTAVYYCARSLARTTAMDYWGEGTLVTVSSASTKGPSVFPLAPSSKSTSGGTAALGCLVKDYFPEPVTVSWNSGALTSGVHTFPAVLQSSGLYSLSSVVTVPSSSLGTQTYICNVNHKPSNTKVDKKVEPKSCDKTHTCPPCPAPELRGGPKVFLFPPKPKDTLYITRTPEVTCVVVDVSHEDPEVKFNWYVDGVEVHNAKTKPREEQYNSTYRVVSVLTVLHQDWLNGKEYKCKVSNKALPAPIEKTISKAKGQPREPQVYTLPPSRDELTKNQVSLTCLVKGFYPSDIAVEWESNGQPENNYKTTPPVLDSDGSFFLYSKLTVDKSRWQQGNVFSCSVMHEALHYHVTKKELSLSP
light: not shown
notes: EU numbering; copies: 2 + 2
B4: IgG1-F1320 (antibody)
heavy: QVQLQESGPGLVKPSETLSLTCAVSGHSISHDHAWSWVRQPPGEGLEWIGFISYSGITNYNPSLQGRVTISRDNSKNTLYLQMNSLRAEDTAVYYCARSLARTTAMDYWGEGTLVTVSSASTKGPSVFPLAPSSKSTSGGTAALGCLVKDYFPEPVTVSWNSGALTSGVHTFPAVLQSSGLYSLSSVVTVPSSSLGTQTYICNVNHKPSNTKVDKKVEPKSCDKTHTCPPCPAPELRGGPKVFLFPPKPKDTLYITRTPEVTCVVVDVSHEDPEVKFNWYVDGVEVHNAKTKPREEQYNSTYRVVSVLTVLHQDWLNGKEYKCKVSNKALPAPIEKTISKAKGQPREPQVYTLPPSRDELTKNQVSLTCLVKGFYPSDIAVEWESNGQPENNYKTTPPVLDSDGSFFLYSKLTVDKSRWQQGNVFSCSVMHEALHYHVTRKDLSLSP
light: not shown
notes: EU numbering; copies: 2 + 2
B5: IgG1-F1316 (antibody)
heavy: QVQLQESGPGLVKPSETLSLTCAVSGHSISHDHAWSWVRQPPGEGLEWIGFISYSGITNYNPSLQGRVTISRDNSKNTLYLQMNSLRAEDTAVYYCARSLARTTAMDYWGEGTLVTVSSASTKGPSVFPLAPSSKSTSGGTAALGCLVKDYFPEPVTVSWNSGALTSGVHTFPAVLQSSGLYSLSSVVTVPSSSLGTQTYICNVNHKPSNTKVDKKVEPKSCDKTHTCPPCPAPELLGRPKVFLFPPKPKDTLYISRTPEVTCVVVDVSHEDPEVKFNWYVDGVEVHNAKTKPREEQYNSTYRVVSVLTVLHQDWLNGKEYKCKVSNKALPAPIEKTISKAKGQPREPQVYTLPPSRDELTKNQVSLTCLVKGFYPSDIAVEWESNGQPENNYKTTPPVLDSDGSFFLYSKLTVDKSRWQQGNVFSCSVMHEALHYHVTQKSLSLSP
light: not shown
notes: EU numbering; copies: 2 + 2
B6: IgG1-F1317 (antibody)
heavy: QVQLQESGPGLVKPSETLSLTCAVSGHSISHDHAWSWVRQPPGEGLEWIGFISYSGITNYNPSLQGRVTISRDNSKNTLYLQMNSLRAEDTAVYYCARSLARTTAMDYWGEGTLVTVSSASTKGPSVFPLAPSSKSTSGGTAALGCLVKDYFPEPVTVSWNSGALTSGVHTFPAVLQSSGLYSLSSVVTVPSSSLGTQTYICNVNHKPSNTKVDKKVEPKSCDKTHTCPPCPAPELLGGPKVFLFPPKPKDTLYISRTPEVTCVVVDVSHEDPEVKFNWYVDGVEVHNAKTKPREEQYNSTYRVVSVLTVLHQDWLNGKEYKCKVSNKALKAPIEKTISKAKGQPREPQVYTLPPSRDELTKNQVSLTCLVKGFYPSDIAVEWESNGQPENNYKTTPPVLDSDGSFFLYSKLTVDKSRWQQGNVFSCSVMHEALHYHVTQKSLSLSP
light: not shown
notes: EU numbering; copies: 2 + 2
B7: IgG1-F1318 (antibody)
heavy: QVQLQESGPGLVKPSETLSLTCAVSGHSISHDHAWSWVRQPPGEGLEWIGFISYSGITNYNPSLQGRVTISRDNSKNTLYLQMNSLRAEDTAVYYCARSLARTTAMDYWGEGTLVTVSSASTKGPSVFPLAPSSKSTSGGTAALGCLVKDYFPEPVTVSWNSGALTSGVHTFPAVLQSSGLYSLSSVVTVPSSSLGTQTYICNVNHKPSNTKVDKKVEPKSCDKTHTCPPCPAPELLGGPKVFLFPPKPKDTLYISRTPEVTCVVVDVSHEDPEVKFNWYVDGVEVHNAKTKPREEQYNSTYRVVSVLTVLHQDWLNGKEYKCKVSNKALRAPIEKTISKAKGQPREPQVYTLPPSRDELTKNQVSLTCLVKGFYPSDIAVEWESNGQPENNYKTTPPVLDSDGSFFLYSKLTVDKSRWQQGNVFSCSVMHEALHYHVTQKSLSLSP
light: not shown
notes: EU numbering; copies: 2 + 2
B8: IgG1-F1314 (antibody)
heavy: QVQLQESGPGLVKPSETLSLTCAVSGHSISHDHAWSWVRQPPGEGLEWIGFISYSGITNYNPSLQGRVTISRDNSKNTLYLQMNSLRAEDTAVYYCARSLARTTAMDYWGEGTLVTVSSASTKGPSVFPLAPSSKSTSGGTAALGCLVKDYFPEPVTVSWNSGALTSGVHTFPAVLQSSGLYSLSSVVTVPSSSLGTQTYICNVNHKPSNTKVDKKVEPKSCDKTHTCPPCPAPELRGGPKVFLFPPKPKDTLYISRTPEVTCVVVDVSHEDPEVKFNWYVDGVEVHNAKTKPREEQYNSTYRVVSVLTVLHQDWLNGKEYKCKVSNKALPAPIEKTISKAKGQPREPQVYTLPPSRDELTKNQVSLTCLVKGFYPSDIAVEWESNGQPENNYKTTPPVLDSDGSFFLYSKLTVDKSRWQQGNVFSCSVMHEALDYHVTLKLLSLSP
light: not shown
notes: EU numbering; copies: 2 + 2
B9: IgG1-F1323 (antibody)
heavy: QVQLQESGPGLVKPSETLSLTCAVSGHSISHDHAWSWVRQPPGEGLEWIGFISYSGITNYNPSLQGRVTISRDNSKNTLYLQMNSLRAEDTAVYYCARSLARTTAMDYWGEGTLVTVSSASTKGPSVFPLAPSSKSTSGGTAALGCLVKDYFPEPVTVSWNSGALTSGVHTFPAVLQSSGLYSLSSVVTVPSSSLGTQTYICNVNHKPSNTKVDKKVEPKSCDKTHTCPPCPAPELRGGPKVFLFPPKPKDTLYITRTPEVTCVVVDVSHEDPEVKFNWYVDGVEVHNAKTKPREEQYNSTYRVVSVLTVLHQDWLNGKEYKCKVSNKALPAPIEKTISKAKGQPREPQVYTLPPSRDELTKNQVSLTCLVKGFYPSDIAVEWESNGQPENNYKTTPPVLDSDGSFFLYSKLTVDKSRWQQGNVFSCSVMHEALDYHVTKKELSLSP
light: not shown
notes: EU numbering; copies: 2 + 2
B10: IgG1-F1313 (antibody)
heavy: QVQLQESGPGLVKPSETLSLTCAVSGHSISHDHAWSWVRQPPGEGLEWIGFISYSGITNYNPSLQGRVTISRDNSKNTLYLQMNSLRAEDTAVYYCARSLARTTAMDYWGEGTLVTVSSASTKGPSVFPLAPSSKSTSGGTAALGCLVKDYFPEPVTVSWNSGALTSGVHTFPAVLQSSGLYSLSSVVTVPSSSLGTQTYICNVNHKPSNTKVDKKVEPKSCDKTHTCPPCPAPELRGGPKVFLFPPKPKDTLYISRTPEVTCVVVDVSHEDPEVKFNWYVDGVEVHNAKTKPREEQYNSTYRVVSVLTVLHQDWLNGKEYKCKVSNKALPAPIEKTISKAKGQPREPQVYTLPPSRDELTKNQVSLTCLVKGFYPSDIAVEWESNGQPENNYKTTPPVLDSDGSFFLYSKLTVDKSRWQQGNVFSCSVMHEALDYHVTAKALSLSP
light: not shown
notes: EU numbering; copies: 2 + 2
B11: IgG1-F1324 (antibody)
heavy: QVQLQESGPGLVKPSETLSLTCAVSGHSISHDHAWSWVRQPPGEGLEWIGFISYSGITNYNPSLQGRVTISRDNSKNTLYLQMNSLRAEDTAVYYCARSLARTTAMDYWGEGTLVTVSSASTKGPSVFPLAPSSKSTSGGTAALGCLVKDYFPEPVTVSWNSGALTSGVHTFPAVLQSSGLYSLSSVVTVPSSSLGTQTYICNVNHKPSNTKVDKKVEPKSCDKTHTCPPCPAPEAAGGPSVFLFPPKPKDTLYISRTPEVTCVVVDVSHEDPEVKFNWYVDGVEVHNAKTKPREEQYNSTYRVVSVLTVLHQDWLNGKEYKCKVSNKALPAPIEKTISKAKGQPREPQVYTLPPSRDELTKNQVSLTCLVKGFYPSDIAVEWESNGQPENNYKTTPPVLDSDGSFFLYSKLTVDKSRWQQGNVFSCSVMHEALHYHVTQKSLSLSP
light: not shown
notes: EU numbering; copies: 2 + 2
B12: IgG1-F1315 (antibody)
heavy: QVQLQESGPGLVKPSETLSLTCAVSGHSISHDHAWSWVRQPPGEGLEWIGFISYSGITNYNPSLQGRVTISRDNSKNTLYLQMNSLRAEDTAVYYCARSLARTTAMDYWGEGTLVTVSSASTKGPSVFPLAPSSKSTSGGTAALGCLVKDYFPEPVTVSWNSGALTSGVHTFPAVLQSSGLYSLSSVVTVPSSSLGTQTYICNVNHKPSNTKVDKKVEPKSCDKTHTCPPCPAPELLGKPKVFLFPPKPKDTLYISRTPEVTCVVVDVSHEDPEVKFNWYVDGVEVHNAKTKPREEQYNSTYRVVSVLTVLHQDWLNGKEYKCKVSNKALPAPIEKTISKAKGQPREPQVYTLPPSRDELTKNQVSLTCLVKGFYPSDIAVEWESNGQPENNYKTTPPVLDSDGSFFLYSKLTVDKSRWQQGNVFSCSVMHEALHYHVTQKSLSLSP
light: not shown
notes: EU numbering; copies: 2 + 2

Experimental findings from patent publication US20140363428A1 (Chugai, published 2014) are described below.

This experiment deals with T1, soluble human FcRn (human, UniProt P55899 24-297; P61769 21-119).
T1 construct: Heterodimer of FcRn alpha chain and beta2-microglobulin; also called hFcRn
T1 sequence (P55899 24-297 limits assumed, chain 1 of 2): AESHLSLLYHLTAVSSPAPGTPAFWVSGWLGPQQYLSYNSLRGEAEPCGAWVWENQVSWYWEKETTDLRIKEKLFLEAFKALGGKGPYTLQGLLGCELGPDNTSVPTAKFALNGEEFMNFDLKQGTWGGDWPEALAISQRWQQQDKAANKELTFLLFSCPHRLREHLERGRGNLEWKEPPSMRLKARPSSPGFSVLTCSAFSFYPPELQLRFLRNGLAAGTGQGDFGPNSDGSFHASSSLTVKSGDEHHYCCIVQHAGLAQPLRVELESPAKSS
T1 sequence (P61769 21-119 limits assumed, chain 2 of 2): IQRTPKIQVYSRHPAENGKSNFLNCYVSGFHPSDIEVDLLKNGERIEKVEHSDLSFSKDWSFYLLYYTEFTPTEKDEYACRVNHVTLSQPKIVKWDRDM
Briefly: SPR (Biacore T100), antibody captured by protein L, hFcRn as analyte, pH 7.0, 25 C.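 Note: KD calculated from fitted association and dissociation rate constants of the sensorgrams, protein L amine-coupled to the sensor chip, sodium phosphate running buffer with NaCl and Tween20.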 Background: Surface plasmon resonance follows binding to a sensor surface in real time, without labels.
Consider B1, for which binding was characterised by a dissociation constant (Kd) of 180 nM.
B2: the Kd is 270 nM.
On to B3, for which the Kd came to 100 nM.
In the case of B4, the equilibrium dissociation constant (Kd) came to 120 nM.
In turn, B5 yielded a dissociation constant (Kd) of 150 nM.
For B6, the Kd is 140 nM. This Kd and that of the molecule before are within 1.5-fold of each other.
To B7 belongs 140 nM.
In the case of B8, the dissociation constant Kd turned out to be 230 nM.
On to B9, for which binding was characterised by a dissociation constant (Kd) of 150 nM. This Kd is about 1.5-fold lower than that of the molecule before.
To B10 belongs 180 nM; to B11, 130 nM.
For B12, the Kd came out at 150 nM.

Usually Kd stands for a measure of binding affinity in units of concentration. A lower Kd goes with a tighter complex.
